Laboratory results: patent publication US20130005646A1 (Novo Nordisk, published 2013)
Starred links: 1 amine or outer side, 2 acyl side, 3 side chain; linkers in the order of their positions; H or OH if unused. Positions of bridges follow the written chain, without caps; N, C: chain ends. *: point of attachment. C20 diacid = O=C(O)CCCCCCCCCCCCCCCCCCC(=O)*; 19‑carboxyheptadecanoyl = not defined here; γGlu = O=C(O)[C@H](CCC(=O)[*:2])N[*:1]; AEEA = NCCOCCOCC(=O)O

T1: human amylin 3(a) receptor (human calcitonin receptor + RAMP-3) (human, UniProt P30988 25-474; O60896 24-148)
T1 sequence (looked up) 1: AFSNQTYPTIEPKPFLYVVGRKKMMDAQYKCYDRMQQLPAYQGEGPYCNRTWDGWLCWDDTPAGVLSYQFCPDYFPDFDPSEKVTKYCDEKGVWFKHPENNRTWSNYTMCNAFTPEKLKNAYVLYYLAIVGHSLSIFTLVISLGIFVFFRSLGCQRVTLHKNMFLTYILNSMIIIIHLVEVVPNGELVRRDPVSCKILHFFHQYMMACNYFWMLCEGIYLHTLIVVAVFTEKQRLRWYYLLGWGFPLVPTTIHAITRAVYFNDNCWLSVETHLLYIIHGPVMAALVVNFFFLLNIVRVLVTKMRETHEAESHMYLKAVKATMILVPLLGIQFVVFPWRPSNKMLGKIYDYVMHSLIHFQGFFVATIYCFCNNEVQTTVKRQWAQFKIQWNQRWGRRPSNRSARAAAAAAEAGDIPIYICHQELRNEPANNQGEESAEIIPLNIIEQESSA
T1 sequence (looked up) 2: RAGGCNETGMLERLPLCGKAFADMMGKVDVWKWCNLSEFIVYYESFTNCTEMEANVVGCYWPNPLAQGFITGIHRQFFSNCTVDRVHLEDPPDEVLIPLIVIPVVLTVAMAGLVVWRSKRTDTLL

T2: human calcitonin (a) receptor (human, UniProt P30988 25-474)
T2 sequence (looked up): T1 sequence (looked up) 1

B1: N-alpha-[(S)-4-Carboxy-4-(19-carboxynonadecanoylamino)butyryl]-[des1,Gly3,Glu14,His17,Arg18,Glu31,Gly35]-pramlintide (peptide)
peptide: {C20 diacid-γGlu}-CGTATCATQRLAEFLHRSSNNFGPILPPTEVGSGTY-NH2
modifications: disulfide 1-6
SMILES: CC[C@H](C)[C@H](NC(=O)[C@@H]1CCCN1C(=O)CNC(=O)[C@H](Cc1ccccc1)NC(=O)[C@H](CC(N)=O)NC(=O)[C@H](CC(N)=O)NC(=O)[C@H](CO)NC(=O)[C@H](CO)NC(=O)[C@H](CCCNC(=N)N)NC(=O)[C@H](Cc1c[nH]cn1)NC(=O)[C@H](CC(C)C)NC(=O)[C@H](Cc1ccccc1)NC(=O)[C@H](CCC(=O)O)NC(=O)[C@H](C)NC(=O)[C@H](CC(C)C)NC(=O)[C@H](CCCNC(=N)N)NC(=O)[C@H](CCC(N)=O)NC(=O)[C@@H](NC(=O)[C@H](C)NC(=O)[C@@H]1CSSC[C@H](NC(=O)CC[C@H](NC(=O)CCCCCCCCCCCCCCCCCCC(=O)O)C(=O)O)C(=O)NCC(=O)N[C@@H]([C@@H](C)O)C(=O)N[C@@H](C)C(=O)N[C@@H]([C@@H](C)O)C(=O)N1)[C@@H](C)O)C(=O)N[C@@H](CC(C)C)C(=O)N1CCC[C@H]1C(=O)N1CCC[C@H]1C(=O)N[C@H](C(=O)N[C@@H](CCC(=O)O)C(=O)N[C@H](C(=O)NCC(=O)N[C@@H](CO)C(=O)NCC(=O)N[C@H](C(=O)N[C@@H](Cc1ccc(O)cc1)C(N)=O)[C@@H](C)O)C(C)C)[C@@H](C)O
B2: N-alpha-[(S)-4-Carboxy-4-(19-carboxynonadecanoylamino)butyryl]-[Glu14,Arg18,Ser21,Ser22,Ser28,Ser29,Asp31,Asp35,Pro37]-pramlintide (peptide)
peptide: {C20 diacid-γGlu}-KCNTATCATQRLAEFLVRSSSSFGPILSSTDVGSDTP-NH2
modifications: disulfide 2-7
SMILES: CC[C@H](C)[C@H](NC(=O)[C@@H]1CCCN1C(=O)CNC(=O)[C@H](Cc1ccccc1)NC(=O)[C@H](CO)NC(=O)[C@H](CO)NC(=O)[C@H](CO)NC(=O)[C@H](CO)NC(=O)[C@H](CCCNC(=N)N)NC(=O)[C@@H](NC(=O)[C@H](CC(C)C)NC(=O)[C@H](Cc1ccccc1)NC(=O)[C@H](CCC(=O)O)NC(=O)[C@H](C)NC(=O)[C@H](CC(C)C)NC(=O)[C@H](CCCNC(=N)N)NC(=O)[C@H](CCC(N)=O)NC(=O)[C@@H](NC(=O)[C@H](C)NC(=O)[C@@H]1CSSC[C@H](NC(=O)[C@H](CCCCN)NC(=O)CC[C@H](NC(=O)CCCCCCCCCCCCCCCCCCC(=O)O)C(=O)O)C(=O)N[C@@H](CC(N)=O)C(=O)N[C@@H]([C@@H](C)O)C(=O)N[C@@H](C)C(=O)N[C@@H]([C@@H](C)O)C(=O)N1)[C@@H](C)O)C(C)C)C(=O)N[C@@H](CC(C)C)C(=O)N[C@@H](CO)C(=O)N[C@@H](CO)C(=O)N[C@H](C(=O)N[C@@H](CC(=O)O)C(=O)N[C@H](C(=O)NCC(=O)N[C@@H](CO)C(=O)N[C@@H](CC(=O)O)C(=O)N[C@H](C(=O)N1CCC[C@H]1C(N)=O)[C@@H](C)O)C(C)C)[C@@H](C)O
B3: N-alpha-[(S)-4-Carboxy-4-(19-carboxynonadecanoylamino)butyryl]-Glu-Arg-[Glu1,Glu14,Arg17,Gln21,Gln22,Gln31,Gln35,Pro37]-pramlintide (peptide)
peptide: {C20 diacid-γGlu}-ERECNTATCATQRLAEFLRHSSQQFGPILPPTQVGSQTP-NH2
modifications: disulfide 4-9
SMILES: CC[C@H](C)[C@H](NC(=O)[C@@H]1CCCN1C(=O)CNC(=O)[C@H](Cc1ccccc1)NC(=O)[C@H](CCC(N)=O)NC(=O)[C@H](CCC(N)=O)NC(=O)[C@H](CO)NC(=O)[C@H](CO)NC(=O)[C@H](Cc1c[nH]cn1)NC(=O)[C@H](CCCNC(=N)N)NC(=O)[C@H](CC(C)C)NC(=O)[C@H](Cc1ccccc1)NC(=O)[C@H](CCC(=O)O)NC(=O)[C@H](C)NC(=O)[C@H](CC(C)C)NC(=O)[C@H](CCCNC(=N)N)NC(=O)[C@H](CCC(N)=O)NC(=O)[C@@H](NC(=O)[C@H](C)NC(=O)[C@@H]1CSSC[C@H](NC(=O)[C@H](CCC(=O)O)NC(=O)[C@H](CCCNC(=N)N)NC(=O)[C@H](CCC(=O)O)NC(=O)CC[C@H](NC(=O)CCCCCCCCCCCCCCCCCCC(=O)O)C(=O)O)C(=O)N[C@@H](CC(N)=O)C(=O)N[C@@H]([C@@H](C)O)C(=O)N[C@@H](C)C(=O)N[C@@H]([C@@H](C)O)C(=O)N1)[C@@H](C)O)C(=O)N[C@@H](CC(C)C)C(=O)N1CCC[C@H]1C(=O)N1CCC[C@H]1C(=O)N[C@H](C(=O)N[C@@H](CCC(N)=O)C(=O)N[C@H](C(=O)NCC(=O)N[C@@H](CO)C(=O)N[C@@H](CCC(N)=O)C(=O)N[C@H](C(=O)N1CCC[C@H]1C(N)=O)[C@@H](C)O)C(C)C)[C@@H](C)O
B4: N-alpha-[2-(2-{2-[2-(2-{2-[(S)-4-Carboxy-4-(19-carboxyheptadecanoylamino)butyrylamino]ethoxy}ethoxy)acetylamino]ethoxy}ethoxy)acetyl]-[Glu14,His17,Lys21,Pro37]- … (peptide)
peptide: {19‑carboxyheptadecanoyl-γGlu-AEEA-AEEA}-KCNTATCATQRLAEFLHHSSKNFGPILPPTNVGSNTP-NH2
modifications: disulfide 2-7; reading uncertain; also: printed as N-alpha-[2-(2-{2-[2-(2-{2-[(S)-4-Carboxy-4-(19-carboxyheptadecanoylamino)butyrylamino]ethoxy}ethoxy)acetylamino]ethoxy}ethoxy)acetyl]-[Glu14,His17,Lys21,Pro37]-pramlintide
B5: N-alpha-[2-(2-{2-[2-(2-{2-[(S)-4-Carboxy-4-(19-carboxyheptadecanoylamino)butyrylamino]ethoxy}ethoxy)acetylamino]ethoxy}ethoxy)acetyl]-[Glu14,His17,Glu21,Pro37]- … (peptide)
peptide: {19‑carboxyheptadecanoyl-γGlu-AEEA-AEEA}-KCNTATCATQRLAEFLHHSSENFGPILPPTNVGSNTP-NH2
modifications: disulfide 2-7; reading uncertain; also: printed as N-alpha-[2-(2-{2-[2-(2-{2-[(S)-4-Carboxy-4-(19-carboxyheptadecanoylamino)butyrylamino]ethoxy}ethoxy)acetylamino]ethoxy}ethoxy)acetyl]-[Glu14,His17,Glu21,Pro37]-pramlintide
B6: N-alpha-[(S)-4-Carboxy-4-(19-carboxynonadecanoylamino)butyryl]-[Glu14,Arg18,Gln21,Ala25,Pro26,Ser28,Ser29,Pro37]-pramlintide (peptide)
peptide: {C20 diacid-γGlu}-KCNTATCATQRLAEFLVRSSQNFGAPLSSTNVGSNTP-NH2
modifications: disulfide 2-7
SMILES: CC(C)C[C@H](NC(=O)[C@H](CCCNC(=N)N)NC(=O)[C@H](CCC(N)=O)NC(=O)[C@@H](NC(=O)[C@H](C)NC(=O)[C@@H]1CSSC[C@H](NC(=O)[C@H](CCCCN)NC(=O)CC[C@H](NC(=O)CCCCCCCCCCCCCCCCCCC(=O)O)C(=O)O)C(=O)N[C@@H](CC(N)=O)C(=O)N[C@@H]([C@@H](C)O)C(=O)N[C@@H](C)C(=O)N[C@@H]([C@@H](C)O)C(=O)N1)[C@@H](C)O)C(=O)N[C@@H](C)C(=O)N[C@@H](CCC(=O)O)C(=O)N[C@@H](Cc1ccccc1)C(=O)N[C@@H](CC(C)C)C(=O)N[C@H](C(=O)N[C@@H](CCCNC(=N)N)C(=O)N[C@@H](CO)C(=O)N[C@@H](CO)C(=O)N[C@@H](CCC(N)=O)C(=O)N[C@@H](CC(N)=O)C(=O)N[C@@H](Cc1ccccc1)C(=O)NCC(=O)N[C@@H](C)C(=O)N1CCC[C@H]1C(=O)N[C@@H](CC(C)C)C(=O)N[C@@H](CO)C(=O)N[C@@H](CO)C(=O)N[C@H](C(=O)N[C@@H](CC(N)=O)C(=O)N[C@H](C(=O)NCC(=O)N[C@@H](CO)C(=O)N[C@@H](CC(N)=O)C(=O)N[C@H](C(=O)N1CCC[C@H]1C(N)=O)[C@@H](C)O)C(C)C)[C@@H](C)O)C(C)C
B7: N-alpha-[(S)-4-Carboxy-4-(19-carboxynonadecanoylamino)butyryl]-[His1,Glu8,Glu14,His17,Arg18]-pramlintide (peptide)
peptide: {C20 diacid-γGlu}-HCNTATCETQRLAEFLHRSSNNFGPILPPTNVGSNTY-NH2
modifications: disulfide 2-7
SMILES: CC[C@H](C)[C@H](NC(=O)[C@@H]1CCCN1C(=O)CNC(=O)[C@H](Cc1ccccc1)NC(=O)[C@H](CC(N)=O)NC(=O)[C@H](CC(N)=O)NC(=O)[C@H](CO)NC(=O)[C@H](CO)NC(=O)[C@H](CCCNC(=N)N)NC(=O)[C@H](Cc1c[nH]cn1)NC(=O)[C@H](CC(C)C)NC(=O)[C@H](Cc1ccccc1)NC(=O)[C@H](CCC(=O)O)NC(=O)[C@H](C)NC(=O)[C@H](CC(C)C)NC(=O)[C@H](CCCNC(=N)N)NC(=O)[C@H](CCC(N)=O)NC(=O)[C@@H](NC(=O)[C@H](CCC(=O)O)NC(=O)[C@@H]1CSSC[C@H](NC(=O)[C@H](Cc2c[nH]cn2)NC(=O)CC[C@H](NC(=O)CCCCCCCCCCCCCCCCCCC(=O)O)C(=O)O)C(=O)N[C@@H](CC(N)=O)C(=O)N[C@@H]([C@@H](C)O)C(=O)N[C@@H](C)C(=O)N[C@@H]([C@@H](C)O)C(=O)N1)[C@@H](C)O)C(=O)N[C@@H](CC(C)C)C(=O)N1CCC[C@H]1C(=O)N1CCC[C@H]1C(=O)N[C@H](C(=O)N[C@@H](CC(N)=O)C(=O)N[C@H](C(=O)NCC(=O)N[C@@H](CO)C(=O)N[C@@H](CC(N)=O)C(=O)N[C@H](C(=O)N[C@@H](Cc1ccc(O)cc1)C(N)=O)[C@@H](C)O)C(C)C)[C@@H](C)O

Each binder was assayed against T1, human amylin 3(a) receptor (human …) (assay: cell-based or functional assay).
In the case of B1, the “Amylin receptor human EC50” value is reported as 0.164 nM. With B2 the “Amylin receptor human EC50” value was 0.09 nM. With B3 the “Amylin receptor human EC50” value was 1.71 nM. In the case of B4, the “Amylin receptor human EC50” value is reported as 0.071 nM. With B5 the “Amylin receptor human EC50” value was 0.203 nM. With B6 the “Amylin receptor human EC50” value was 0.039 nM. B7 was tested, and the “Amylin receptor human EC50” value was 0.602 nM.

The binders below were run against T2, human calcitonin (a) receptor (assay: cell-based or functional assay).
With B1 the “CTa receptor human EC50” value was 0.222 nM. In the case of B2, the “CTa receptor human EC50” value is reported as 0.076 nM. In the case of B3, the “CTa receptor human EC50” value is reported as 3.57 nM. With B4 the “CTa receptor human EC50” value was 0.085 nM. For B5, the “CTa receptor human EC50” value was 0.113 nM. For B6, the “CTa receptor human EC50” value was 0.034 nM. For B7, the “CTa receptor human EC50” value was 4.3 nM.
